{"source": "paper PMC2761088", "biological_target": "human recombinant Akt1-GST (not treated with H2O2) (human) (UniProt P31749)", "sequence (P31749 whole entry)": "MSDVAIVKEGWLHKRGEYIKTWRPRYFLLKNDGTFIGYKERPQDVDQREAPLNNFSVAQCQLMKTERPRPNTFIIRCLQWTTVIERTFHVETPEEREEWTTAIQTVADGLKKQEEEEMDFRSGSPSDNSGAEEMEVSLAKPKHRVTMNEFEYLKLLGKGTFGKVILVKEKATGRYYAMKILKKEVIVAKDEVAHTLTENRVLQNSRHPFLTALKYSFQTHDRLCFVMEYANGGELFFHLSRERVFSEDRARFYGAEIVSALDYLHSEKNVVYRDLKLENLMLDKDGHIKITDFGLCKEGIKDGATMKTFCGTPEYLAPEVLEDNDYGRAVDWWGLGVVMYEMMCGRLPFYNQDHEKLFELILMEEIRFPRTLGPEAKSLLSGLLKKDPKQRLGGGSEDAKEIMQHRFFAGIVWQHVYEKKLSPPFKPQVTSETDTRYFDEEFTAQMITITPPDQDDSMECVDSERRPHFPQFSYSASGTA"}
{"substance": "PDK1 (PI3K-dependent kinase 1) of NIH/3T3 mitochondrial fractions (from UniProt Q9Z2A0 1-559) (enzyme)", "values": [{"measurement": "Akt1 activity (formation of P-GSK-3 α/β in vitro) of Akt1 immunoprecipitated from mitochondrial extracts of NIH cells treated with low to high H2O2; decreased to 45% of control at high H2O2", "value": 150, "unit": "%"}]}
